T1: orthogonal hCD122 receptor (hoRb), hCD122 with H133D and Y134F (human, UniProt P14784 27-550)
T1 sequence: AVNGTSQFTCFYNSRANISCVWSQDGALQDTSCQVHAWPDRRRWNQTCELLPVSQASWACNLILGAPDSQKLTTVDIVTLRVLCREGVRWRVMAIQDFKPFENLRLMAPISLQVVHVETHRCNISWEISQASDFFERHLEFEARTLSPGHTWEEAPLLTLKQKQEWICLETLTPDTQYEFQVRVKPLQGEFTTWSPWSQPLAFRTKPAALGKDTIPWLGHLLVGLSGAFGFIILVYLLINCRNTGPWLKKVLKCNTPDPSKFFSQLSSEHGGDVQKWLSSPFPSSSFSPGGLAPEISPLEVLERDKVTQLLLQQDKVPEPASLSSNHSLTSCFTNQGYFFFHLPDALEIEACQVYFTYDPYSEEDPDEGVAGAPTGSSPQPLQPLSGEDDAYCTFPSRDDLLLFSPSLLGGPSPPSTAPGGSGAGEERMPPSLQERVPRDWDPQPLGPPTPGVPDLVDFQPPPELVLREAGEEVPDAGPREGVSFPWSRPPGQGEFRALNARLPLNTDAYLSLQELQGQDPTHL


Tests used:
[1] = biological target: T1, orthogonal hCD122 receptor (hoRb), …; assay: cell-based or functional assay
[2] = biological target: T1, orthogonal hCD122 receptor (hoRb), …; assay: cell-based or functional assay; remark: listed apart in the source
For Relative Proliferation Fold Change 3F8 1:10 in this document: reference of the scale not given here.
For Relative Proliferation Fold Change 3F8 1:2 in this document: reference of the scale not given here.
For Relative Proliferation Fold Change 3F8 1:50 in this document: reference of the scale not given here.
For Relative Proliferation Fold Change NKL 1:10 in this document: reference of the scale not given here.
For Relative Proliferation Fold Change NKL 1:2 in this document: reference of the scale not given here.
For Relative Proliferation Fold Change NKL 1:50 in this document: reference of the scale not given here.

| Binder | NKL Ortho Proliferation Signal 1:2 [1] | NKL Ortho Proliferation Signal 1:10 [1] | NKL Ortho Proliferation Signal 1:50 [1] | Relative Proliferation Fold Change NKL 1:2 [1] | Relative Proliferation Fold Change NKL 1:10 [1] | Relative Proliferation Fold Change NKL 1:50 [1] | 3F8 Ortho Proliferation Signal 1:2 [2] | 3F8 Ortho Proliferation Signal 1:10 [2] | 3F8 Ortho Proliferation Signal 1:50 [2] | Relative Proliferation Fold Change 3F8 1:2 [2] | Relative Proliferation Fold Change 3F8 1:10 [2] | Relative Proliferation Fold Change 3F8 1:50 [2] |
| --- | --- | --- | --- | --- | --- | --- | --- | --- | --- | --- | --- | --- |
| SQVLEA (ligand) APTSSSTKKTQLQLSQLLVLLEAILNGINNYKNPKLTRMLTFKFYMPKKATELKHLQCLEEELKPLEEVLNLAQSKNFHLRPRDLISNINVIVLELKGSETTFMCEYADETATIVEFLNRWITFCQSIISTLT | 21100 | 18200 | 9480 | 1.78 fold | 1.19 fold | 0.67 fold | 33400 cts/min | 31600 cts/min | 12600 cts/min | 32.9 fold | 28.2 fold | 13.1 fold |
| SQVLFA (Ref# 079) (ligand) APTSSSTKKTQLQLSQLLVLLFAILNGINNYKNPKLTRMLTFKFYMPKKATELKHLQCLEEELKPLEEVLNLAQSKNFHLRPRDLISNINVIVLELKGSETTFMCEYADETATIVEFLNRWITFCQSIISTLT | – | – | – | 1.23 fold | – | – | – | – | – | – | – | – |
| SQVLVA (ligand) APTSSSTKKTQLQLSQLLVLLVAILNGINNYKNPKLTRMLTFKFYMPKKATELKHLQCLEEELKPLEEVLNLAQSKNFHLRPRDLISNINVIVLELKGSETTFMCEYADETATIVEFLNRWITFCQSIISTLT | 10800 | 8600 | 6590 | 0.83 fold | 0.62 fold | 0.51 fold | 8530 cts/min | 5590 cts/min | 1850 cts/min | 20.2 fold | 9.6 fold | 2.1 fold |
| SQVLSA (ligand) APTSSSTKKTQLQLSQLLVLLSAILNGINNYKNPKLTRMLTFKFYMPKKATELKHLQCLEEELKPLEEVLNLAQSKNFHLRPRDLISNINVIVLELKGSETTFMCEYADETATIVEFLNRWITFCQSIISTLT | 16000 | 13000 | 7840 | 2.1 fold | 1.25 fold | 0.77 fold | 22000 cts/min | 14500 cts/min | 4060 cts/min | 117 fold | 23.9 fold | 6 fold |
| SQVLAA (ligand) APTSSSTKKTQLQLSQLLVLLAAILNGINNYKNPKLTRMLTFKFYMPKKATELKHLQCLEEELKPLEEVLNLAQSKNFHLRPRDLISNINVIVLELKGSETTFMCEYADETATIVEFLNRWITFCQSIISTLT | 14600 | 11800 | 9400 | 1.05 fold | 0.72 fold | 0.62 fold | 15900 cts/min | 7290 cts/min | 2940 cts/min | 69.2 fold | 10.1 fold | 4.29 fold |
| SQVLLA (ligand) APTSSSTKKTQLQLSQLLVLLLAILNGINNYKNPKLTRMLTFKFYMPKKATELKHLQCLEEELKPLEEVLNLAQSKNFHLRPRDLISNINVIVLELKGSETTFMCEYADETATIVEFLNRWITFCQSIISTLT | 16400 | 16100 | 8570 | 1.5 fold | 1.06 fold | 0.59 fold | 19700 cts/min | 9730 cts/min | 3150 cts/min | 59.8 fold | 13 fold | 4.68 fold |
| SQVLFA (Ref# 073) (ligand) APTSSSTKKTQLQLSQLLVLLFAILNGINNYKNPKLTRMLTFKFYMPKKATELKHLQCLEEELKPLEEVLNLAQSKNFHLRPRDLISNINVIVLELKGSETTFMCEYADETATIVEFLNRWITFCQSIISTLT | – | – | – | 1.23 fold | – | – | – | – | – | – | – | – |
| SQVLWA (ligand) APTSSSTKKTQLQLSQLLVLLWAILNGINNYKNPKLTRMLTFKFYMPKKATELKHLQCLEEELKPLEEVLNLAQSKNFHLRPRDLISNINVIVLELKGSETTFMCEYADETATIVEFLNRWITFCQSIISTLT | 14000 | 11100 | 8870 | 1.14 fold | 0.66 fold | 0.54 fold | 7840 cts/min | 4470 cts/min | 714 cts/min | 14.6 fold | 3.35 fold | 0.92 fold |
| SQVLMA (ligand) APTSSSTKKTQLQLSQLLVLLMAILNGINNYKNPKLTRMLTFKFYMPKKATELKHLQCLEEELKPLEEVLNLAQSKNFHLRPRDLISNINVIVLELKGSETTFMCEYADETATIVEFLNRWITFCQSIISTLT | 20500 | 18600 | 11000 | 1.4 fold | 1.07 fold | 0.65 fold | 20800 cts/min | 11100 cts/min | 3800 cts/min | 63.3 fold | 14.5 fold | 5.92 fold |
| SQVLGA (ligand) APTSSSTKKTQLQLSQLLVLLGAILNGINNYKNPKLTRMLTFKFYMPKKATELKHLQCLEEELKPLEEVLNLAQSKNFHLRPRDLISNINVIVLELKGSETTFMCEYADETATIVEFLNRWITFCQSIISTLT | 13500 | 11700 | 8730 | 1.1 fold | 0.83 fold | 0.6 fold | 18000 cts/min | 9170 cts/min | 2300 cts/min | 74.5 fold | 15.6 fold | 5.06 fold |
| ΔA1, SQVLKA (ligand) PTSSSTKKTQLQLSQLLVLLKAILNGINNYKNPKLTRMLTFKFYMPKKATELKHLQCLEEELKPLEEVLNLAQSKNFHLRPRDLISNINVIVLELKGSETTFMCEYADETATIVEFLNRWITFCQSIISTLT | 33400 | 27700 | 13800 | 2.96 fold | 1.81 fold | 0.96 fold | 32400 cts/min | 21900 cts/min | 8150 cts/min | 171 fold | 22.6 fold | 11.7 fold |
| ΔT7, SQVLKA (ligand) APTSSSKKTQLQLSQLLVLLKAILNGINNYKNPKLTRMLTFKFYMPKKATELKHLQCLEEELKPLEEVLNLAQSKNFHLRPRDLISNINVIVLELKGSETTFMCEYADETATIVEFLNRWITFCQSIISTLT | 55400 | 51900 | 25300 | 3.65 fold | 3.32 fold | 1.76 fold | 40800 cts/min | 29200 cts/min | 10700 cts/min | 49.1 fold | 21.7 fold | 15.3 fold |
| ΔP2, SQVLKA (ligand) ATSSSTKKTQLQLSQLLVLLKAILNGINNYKNPKLTRMLTFKFYMPKKATELKHLQCLEEELKPLEEVLNLAQSKNFHLRPRDLISNINVIVLELKGSETTFMCEYADETATIVEFLNRWITFCQSIISTLT | 64000 | 61900 | 27800 | 4.41 fold | 3.8 fold | 1.77 fold | 40100 cts/min | 31000 cts/min | 12400 cts/min | 34.2 fold | 29.4 fold | 10.5 fold |
